The target in assay [1] is PBP1A (untagged, purified) (E. coli) (UniProt P02918).
In assay [2] the target is PBP1B (untagged, purified) (E. coli) (UniProt P02919).
PBP1B (untagged, purified) (E. coli), sequence (P02919 46-844 limits assumed): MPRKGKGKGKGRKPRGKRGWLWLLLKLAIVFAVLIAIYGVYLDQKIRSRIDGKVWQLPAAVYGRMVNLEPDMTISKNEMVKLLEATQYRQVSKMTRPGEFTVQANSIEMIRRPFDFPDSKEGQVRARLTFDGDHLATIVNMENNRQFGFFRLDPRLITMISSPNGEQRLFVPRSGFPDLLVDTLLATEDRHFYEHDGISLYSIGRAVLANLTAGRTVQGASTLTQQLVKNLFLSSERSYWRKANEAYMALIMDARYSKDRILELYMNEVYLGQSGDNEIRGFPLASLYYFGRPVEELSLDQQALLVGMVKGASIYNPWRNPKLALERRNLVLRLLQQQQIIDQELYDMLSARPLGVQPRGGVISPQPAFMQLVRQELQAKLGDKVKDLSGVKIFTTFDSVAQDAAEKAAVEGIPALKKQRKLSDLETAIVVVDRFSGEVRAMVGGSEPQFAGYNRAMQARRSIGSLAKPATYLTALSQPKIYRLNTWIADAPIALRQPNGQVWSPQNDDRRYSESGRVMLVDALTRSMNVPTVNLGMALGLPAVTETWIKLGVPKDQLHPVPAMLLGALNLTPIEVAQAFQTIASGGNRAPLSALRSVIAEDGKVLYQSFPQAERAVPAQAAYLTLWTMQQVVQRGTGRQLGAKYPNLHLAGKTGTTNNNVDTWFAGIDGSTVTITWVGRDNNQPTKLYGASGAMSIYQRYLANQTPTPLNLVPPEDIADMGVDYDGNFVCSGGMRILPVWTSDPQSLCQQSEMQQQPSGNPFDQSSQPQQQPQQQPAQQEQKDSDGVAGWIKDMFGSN

PBP1A (untagged, purified) (E. coli), sequence (P02918 whole entry): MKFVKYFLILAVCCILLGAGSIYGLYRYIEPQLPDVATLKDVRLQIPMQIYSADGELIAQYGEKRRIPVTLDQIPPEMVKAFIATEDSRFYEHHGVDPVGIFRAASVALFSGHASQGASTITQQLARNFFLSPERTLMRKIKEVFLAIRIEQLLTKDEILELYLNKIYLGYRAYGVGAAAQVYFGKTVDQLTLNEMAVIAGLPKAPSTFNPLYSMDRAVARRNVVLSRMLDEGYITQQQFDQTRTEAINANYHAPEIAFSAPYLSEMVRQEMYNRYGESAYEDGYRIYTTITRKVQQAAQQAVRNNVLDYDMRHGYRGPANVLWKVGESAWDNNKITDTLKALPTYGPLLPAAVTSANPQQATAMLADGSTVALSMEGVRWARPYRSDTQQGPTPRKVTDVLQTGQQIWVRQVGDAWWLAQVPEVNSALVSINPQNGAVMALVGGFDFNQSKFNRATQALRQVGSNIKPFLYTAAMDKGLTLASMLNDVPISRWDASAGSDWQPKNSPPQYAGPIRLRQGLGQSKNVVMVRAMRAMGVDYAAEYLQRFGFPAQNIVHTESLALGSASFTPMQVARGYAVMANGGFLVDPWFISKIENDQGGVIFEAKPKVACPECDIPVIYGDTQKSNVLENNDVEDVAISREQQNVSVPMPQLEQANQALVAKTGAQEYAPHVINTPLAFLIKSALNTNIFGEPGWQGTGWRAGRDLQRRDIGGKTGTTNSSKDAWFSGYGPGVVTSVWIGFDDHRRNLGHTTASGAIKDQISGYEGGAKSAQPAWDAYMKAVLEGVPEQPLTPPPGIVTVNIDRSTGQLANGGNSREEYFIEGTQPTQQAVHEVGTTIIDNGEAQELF

With “FtsN-His (from UniProt P29131 1-319) (natural protein)”, the GTase rate of PBP1A (consumption of dansylated lipid II), normalised to PBP1A alone, with FtsN in assay [1] came out at 1.3 fold. In assay [2], this substance came in with a GTase rate of PBP1B (consumption of dansylated lipid II), normalised to PBP1B alone, with FtsN of 2.6 fold.

In assay [1], “ZipA (untagged, oligohistidine tag removed by thrombin) (from UniProt P77173 1-328) (natural protein)” had a GTase rate of PBP1A (consumption of dansylated lipid II), normalised to PBP1A alone, with ZipA of 2.6 fold; a GTase rate of PBP1A, normalised to PBP1A alone, with ZipA and FtsN together of 3.4 fold. In assay [2], this substance returned a GTase rate of PBP1B (consumption of dansylated lipid II), normalised to PBP1B alone, with ZipA of 1.4 fold; a GTase rate of PBP1B, normalised to PBP1B alone, with ZipA and FtsN together of 3 fold.
